From patent US20220411483A1 (Chugai, published 2022)

T1: FcγRIIa R type extracellular domain with C-terminal His tag (human, UniProt P12318 34-217)
T1 construct: extracellular domain; also called FcgRIIaR
T1 sequence (looked up): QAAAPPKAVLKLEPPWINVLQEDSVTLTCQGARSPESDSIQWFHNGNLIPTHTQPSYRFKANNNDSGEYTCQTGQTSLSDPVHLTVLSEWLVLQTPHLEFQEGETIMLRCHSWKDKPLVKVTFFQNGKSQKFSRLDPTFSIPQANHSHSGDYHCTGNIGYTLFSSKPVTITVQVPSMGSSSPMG


What follows are binders tested against T1, FcγRIIa R type extracellular domain … (assay: SPR (Biacore), FcgR as analyte).

| Kd [nM] | Binder |
| --- | --- |
| 5000 | IL6R-2B253/IL6R-L (antibody, human IgG1, kappa, name in EU numbering, IgG1; alterations on IL6R-B3, EU numbering) heavy: QVQLQESGPGLVKPSETLSLTCAVSGHSISHDHAWSWVRQPPGEGLEWIGFISYSGITNYNPSLQGRVTISRDNSKNTLYLQMNSLRAEDTAVYYCARSLARTTAMDYWGEGTLVTVSSASTKGPSVFPLAPSSKSTSGGTAALGCLVKDYFPEPVTVSWNSGALTSGVHTFPAVLQSSGLYSLSSVVTVPSSSLGTQTYICNVNHKPSNTKVDKKVEPKSCDKTHTCPPCPAPDLLGGDSVFLFPPKPKDTLMISRTPEVTCVVVDVSHEDPEVKFNWYVDGVEVHNAKTKPREEQYNSTYRVVSVLTVLHQDWLNGKEYKCKMSNKALPAPIEKTISKAKGQPREPQVYTLPPSRDELTKNQVSLTCLVKGFYPSDIAVEWESNGQPENNYKTTPPVLDSDGSFFLYSKLTVDKSRWQQGNVFSCSVMHEALHNHYTQESLSLSP light: not shown |
| 8000 | IL6R-BP132/IL6R-L (antibody, human IgG1, kappa, name in EU numbering, IgG1; alterations on IL6R-B3, EU numbering) heavy: QVQLQESGPGLVKPSETLSLTCAVSGHSISHDHAWSWVRQPPGEGLEWIGFISYSGITNYNPSLQGRVTISRDNSKNTLYLQMNSLRAEDTAVYYCARSLARTTAMDYWGEGTLVTVSSASTKGPSVFPLAPSSKSTSGGTAALGCLVKDYFPEPVTVSWNSGALTSGVHTFPAVLQSSGLYSLSSVVTVPSSSLGTQTYICNVNHKPSNTKVDKKVEPKSCDKTHTCPPCPAPDLLGGDSVFLFPPKPKDTLMISRTPEVTCVVVDVSHEDPEVKFNWYVDGVEVHNAKTKPREEQYNSTYRVVSVLTVLHQDWLNGKEYKCKVSNAALPKPIEKTISKAKGQPREPQVYTLPPSRDELTKNQVSLTCLVKGFYPSDIAVEWESNGQPENNYKTTPPVLDSDGSFFLYSKLTVDKSRWQQGNVFSCSVMHEALHNHYTQESLSLSP light: not shown |
| 2600 | IL6R-BP183/IL6R-L (antibody, human IgG1, kappa, name in EU numbering, IgG1; alterations on IL6R-B3, EU numbering) heavy: QVQLQESGPGLVKPSETLSLTCAVSGHSISHDHAWSWVRQPPGEGLEWIGFISYSGITNYNPSLQGRVTISRDNSKNTLYLQMNSLRAEDTAVYYCARSLARTTAMDYWGEGTLVTVSSASTKGPSVFPLAPSSKSTSGGTAALGCLVKDYFPEPVTVSWNSGALTSGVHTFPAVLQSSGLYSLSSVVTVPSSSLGTQTYICNVNHKPSNTKVDKKVEPKSCDKTHTCPPCPAPDYLGGDSVFLFPPKPKDTLMISRTPEVTCVVVDVSHEDGEVKFNWYVDGVEVHNAKTKPREEQYNSTYRVVSVLTVLHQDWLNGKEYKCKVSNAALPKPIEKTISKAKGQPREPQVYTLPPSRDELTKNQVSLTCLVKGFYPSDIAVEWESNGQPENNYKTTPPVLDSDGSFFLYSKLTVDKSRWQQGNVFSCSVMHEALHNHYTQESLSLSP light: not shown |
| 3000 | IL6R-BP196/IL6R-L (antibody, human IgG1, kappa, name in EU numbering, IgG1; alterations on IL6R-B3, EU numbering) heavy: QVQLQESGPGLVKPSETLSLTCAVSGHSISHDHAWSWVRQPPGEGLEWIGFISYSGITNYNPSLQGRVTISRDNSKNTLYLQMNSLRAEDTAVYYCARSLARTTAMDYWGEGTLVTVSSASTKGPSVFPLAPSSKSTSGGTAALGCLVKDYFPEPVTVSWNSGALTSGVHTFPAVLQSSGLYSLSSVVTVPSSSLGTQTYICNVNHKPSNTKVDKKVEPKSCDKTHTCPPCPAPEYLGGDSVFLFPPKPKDTLMISRTPEVTCVVVDVSDEDGEVKFNWYVDGVEVHNAKTKPREEQYNSTYRVVSVLTVLHQDWLNGKEYKCKVSNAALPKPIEKTISKAKGQPREPQVYTLPPSRDELTKNQVSLTCLVKGFYPSDIAVEWESNGQPENNYKTTPPVLDSDGSFFLYSKLTVDKSRWQQGNVFSCSVMHEALHNHYTQESLSLSP light: not shown |
| 1000 | IL6R-BP188/IL6R-L (antibody, human IgG1, kappa, name in EU numbering, IgG1; alterations on IL6R-B3, EU numbering) heavy: QVQLQESGPGLVKPSETLSLTCAVSGHSISHDHAWSWVRQPPGEGLEWIGFISYSGITNYNPSLQGRVTISRDNSKNTLYLQMNSLRAEDTAVYYCARSLARTTAMDYWGEGTLVTVSSASTKGPSVFPLAPSSKSTSGGTAALGCLVKDYFPEPVTVSWNSGALTSGVHTFPAVLQSSGLYSLSSVVTVPSSSLGTQTYICNVNHKPSNTKVDKKVEPKSCDKTHTCPPCPAPDLLGDDSVFLFPPKPKDTLMISRTPEVTCVVVDVSDEDGEVKFNWYVDGVEVHNAKTKPREEQYNSTYRVVSVLTVLHQDWLNGKEYKCKVSNKALPKPIEKTISKAKGQPREPQVYTLPPSRDELTKNQVSLTCLVKGFYPSDIAVEWESNGQPENNYKTTPPVLDSDGSFFLYSKLTVDKSRWQQGNVFSCSVMHEALHNHYTQESLSLSP light: not shown |
| 980 | IL6R-BP197/IL6R-L (antibody, human IgG1, kappa, name in EU numbering, IgG1; alterations on IL6R-B3, EU numbering) heavy: QVQLQESGPGLVKPSETLSLTCAVSGHSISHDHAWSWVRQPPGEGLEWIGFISYSGITNYNPSLQGRVTISRDNSKNTLYLQMNSLRAEDTAVYYCARSLARTTAMDYWGEGTLVTVSSASTKGPSVFPLAPSSKSTSGGTAALGCLVKDYFPEPVTVSWNSGALTSGVHTFPAVLQSSGLYSLSSVVTVPSSSLGTQTYICNVNHKPSNTKVDKKVEPKSCDKTHTCPPCPAPDYLGDDSVFLFPPKPKDTLMISRTPEVTCVVVDVSDEDGEVKFNWYVDGVEVHNAKTKPREEQDNSTYRVVSVLTVLHQDWLNGKEYKCKVSNDALPKPIEKTISKAKGQPREPQVYTLPPSRDELTKNQVSLTCLVKGFYPSDIAVEWESNGQPENNYKTTPPVLDSDGSFFLYSKLTVDKSRWQQGNVFSCSVMHEALHNHYTQESLSLSP light: not shown |
| 4200 | IL6R-BP085/IL6R-L (antibody, human IgG1, kappa, name in EU numbering, IgG1; alterations on IL6R-B3, EU numbering) heavy: QVQLQESGPGLVKPSETLSLTCAVSGHSISHDHAWSWVRQPPGEGLEWIGFISYSGITNYNPSLQGRVTISRDNSKNTLYLQMNSLRAEDTAVYYCARSLARTTAMDYWGEGTLVTVSSASTKGPSVFPLAPSSKSTSGGTAALGCLVKDYFPEPVTVSWNSGALTSGVHTFPAVLQSSGLYSLSSVVTVPSSSLGTQTYICNVNHKPSNTKVDKKVEPKSCDKTHTCPPCPAPELLGDDSVFLFPPKPKDTLMISRTPEVTCVVVDVSHEDPEVKFNWYVDGVEVHNAKTKPREEQYNSTYRVVSVLTVLHQDWLNGKEYKCKVSNKALPKPIEKTISKAKGQPREPQVYTLPPSRDELTKNQVSLTCLVKGFYPSDIAVEWESNGQPENNYKTTPPVLDSDGSFFLYSKLTVDKSRWQQGNVFSCSVMHEALHNHYTQESLSLSP light: not shown |
| 2300 | IL6R-BP184/IL6R-L (antibody, human IgG1, kappa, name in EU numbering, IgG1; alterations on IL6R-B3, EU numbering) heavy: QVQLQESGPGLVKPSETLSLTCAVSGHSISHDHAWSWVRQPPGEGLEWIGFISYSGITNYNPSLQGRVTISRDNSKNTLYLQMNSLRAEDTAVYYCARSLARTTAMDYWGEGTLVTVSSASTKGPSVFPLAPSSKSTSGGTAALGCLVKDYFPEPVTVSWNSGALTSGVHTFPAVLQSSGLYSLSSVVTVPSSSLGTQTYICNVNHKPSNTKVDKKVEPKSCDKTHTCPPCPAPDLLGGDSVFLFPPKPKDTLMISRTPEVTCVVVDVSHEDGEVKFNWYVDGVEVHNAKTKPREEQYNSTYRVVSVLTVLHQDWLNGKEYKCKVSNKALPKPIEKTISKAKGQPREPQVYTLPPSRDELTKNQVSLTCLVKGFYPSDIAVEWESNGQPENNYKTTPPVLDSDGSFFLYSKLTVDKSRWQQGNVFSCSVMHEALHNHYTQESLSLSP light: not shown |
| 960 | IL6R-BP186/IL6R-L (antibody, human IgG1, kappa, name in EU numbering, IgG1; alterations on IL6R-B3, EU numbering) heavy: QVQLQESGPGLVKPSETLSLTCAVSGHSISHDHAWSWVRQPPGEGLEWIGFISYSGITNYNPSLQGRVTISRDNSKNTLYLQMNSLRAEDTAVYYCARSLARTTAMDYWGEGTLVTVSSASTKGPSVFPLAPSSKSTSGGTAALGCLVKDYFPEPVTVSWNSGALTSGVHTFPAVLQSSGLYSLSSVVTVPSSSLGTQTYICNVNHKPSNTKVDKKVEPKSCDKTHTCPPCPAPDYLGDDSVFLFPPKPKDTLMISRTPEVTCVVVDVSHEDGEVKFNWYVDGVEVHNAKTKPREEQDNSTYRVVSVLTVLHQDWLNGKEYKCKVSNAALPKPIEKTISKAKGQPREPQVYTLPPSRDELTKNQVSLTCLVKGFYPSDIAVEWESNGQPENNYKTTPPVLDSDGSFFLYSKLTVDKSRWQQGNVFSCSVMHEALHNHYTQESLSLSP light: not shown |
